According to IntAct's records for PubMed 23454188:

Target: gima7_human GIMAP7 (UniProt Q8NHV1)
Sequence (Q8NHV1 whole entry): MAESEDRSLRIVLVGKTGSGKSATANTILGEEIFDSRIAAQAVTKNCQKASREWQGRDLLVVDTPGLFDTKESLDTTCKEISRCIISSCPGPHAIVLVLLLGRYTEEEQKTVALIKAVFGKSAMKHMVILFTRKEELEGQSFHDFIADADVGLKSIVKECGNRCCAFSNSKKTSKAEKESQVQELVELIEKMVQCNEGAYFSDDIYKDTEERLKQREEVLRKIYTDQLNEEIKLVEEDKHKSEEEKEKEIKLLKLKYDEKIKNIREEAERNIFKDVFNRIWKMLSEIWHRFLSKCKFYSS

GTPase IMAP family member 2 (Homo sapiens), Q9UG22 S54A, sequence (Q9UG22 whole entry S54A): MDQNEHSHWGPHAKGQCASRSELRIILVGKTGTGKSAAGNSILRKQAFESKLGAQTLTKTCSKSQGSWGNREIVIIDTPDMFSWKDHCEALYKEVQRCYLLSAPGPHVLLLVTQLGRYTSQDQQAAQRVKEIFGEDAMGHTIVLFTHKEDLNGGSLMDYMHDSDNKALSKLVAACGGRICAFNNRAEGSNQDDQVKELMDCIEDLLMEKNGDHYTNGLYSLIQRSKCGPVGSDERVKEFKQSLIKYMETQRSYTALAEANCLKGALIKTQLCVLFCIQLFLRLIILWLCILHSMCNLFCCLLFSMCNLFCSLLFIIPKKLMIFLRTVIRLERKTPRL
GTPase IMAP family member 2 (Homo sapiens), Q9UG22 R117D, sequence (Q9UG22 whole entry R117D): as the sequence (Q9UG22 whole entry S54A) above, with A54S, R117D counted along it

effect of a mutation on the interaction | Substance
disrupting interaction strength | GTPase IMAP family member 2 (Homo sapiens), Q9UG22 R117D
disrupting interaction strength | GTPase IMAP family member 2 (Homo sapiens), Q9UG22 S54A
